Experimental data reported in US20230242673A1.

Molecular target: LDLR expressed in HepG2 cells (UniProt P01130)
Assay: cell-based or functional assay

Chain of LDLR expressed in HepG2 cells (P01130 22-860 limits assumed): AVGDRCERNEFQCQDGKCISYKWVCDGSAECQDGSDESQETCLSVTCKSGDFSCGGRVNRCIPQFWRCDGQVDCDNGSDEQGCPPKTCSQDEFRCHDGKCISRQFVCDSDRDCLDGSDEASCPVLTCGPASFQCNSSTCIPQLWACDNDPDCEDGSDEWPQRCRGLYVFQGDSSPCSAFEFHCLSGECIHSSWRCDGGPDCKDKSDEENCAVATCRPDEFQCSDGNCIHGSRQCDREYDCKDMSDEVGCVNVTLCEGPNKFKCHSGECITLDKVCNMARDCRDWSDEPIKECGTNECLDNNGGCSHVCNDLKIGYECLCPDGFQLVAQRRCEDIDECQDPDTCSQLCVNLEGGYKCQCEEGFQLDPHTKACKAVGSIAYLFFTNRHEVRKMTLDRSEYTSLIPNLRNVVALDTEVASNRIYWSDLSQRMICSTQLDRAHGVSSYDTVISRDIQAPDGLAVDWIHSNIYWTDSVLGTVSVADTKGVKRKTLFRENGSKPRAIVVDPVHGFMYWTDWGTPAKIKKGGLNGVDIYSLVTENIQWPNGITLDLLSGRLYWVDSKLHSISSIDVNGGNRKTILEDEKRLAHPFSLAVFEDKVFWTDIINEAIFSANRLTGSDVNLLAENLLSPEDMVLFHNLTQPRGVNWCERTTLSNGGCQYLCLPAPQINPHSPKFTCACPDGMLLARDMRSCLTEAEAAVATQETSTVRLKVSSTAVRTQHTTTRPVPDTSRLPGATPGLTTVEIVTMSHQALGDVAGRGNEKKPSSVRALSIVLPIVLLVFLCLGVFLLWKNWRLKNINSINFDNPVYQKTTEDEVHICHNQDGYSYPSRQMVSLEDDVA

Substance: PCSK9 Ag (human PCSK9 protein, Acro Cat No: PC9-H5223) (from UniProt Q8NBP7 31-692)
- LDL uptake by HepG2 cells, fluorescence value of LDL BODIPY (485 Ex/535 Em): 80
